# B1: BMP4: Bone Morphogenetic Protein 4, TGF-beta superfamily member (protein, UniProt P12644 293-408, looked up)
# Bone morphogenetic protein 4: SPKHHSQRARKKNKNCRRHSLYVDFSDVGWNDWIVAPPGYQAFYCHGDCPFPLADHLNSTNHAIVQTLVNSVNSSIPKACCVPTELSAISMLYLDEYDKVVLKNYQEMVVEGCGCR
# Columns and labels:
# cell line E75 = experiment: Differentiation of cell line E75 in HyStem, gene expression; assay type: cell-based, human
# Procedure: (§1) HyStem-C (BioTime, Inc. Alameda, Calif.) (BioTime, Alameda, Calif., USA) was reconstituted following the manufacturer's instructions. Briefly, the HyStem component (thiol modified hyaluronan, 10 mg) was dissolved in 1.0 ml degassed deionized water for about 20 minutes to prepare a 1% w/v solution. The Gelin-S component (thiol modified gelatin, 10 mg) was dissolved in 1 ml degassed deionized water to prepare a 1% w/v solution, and PEGDA (PEG diacrylate, 10 mg) was dissolved in 0.5 ml degassed deionized water to prepare a 2% w/v solution. HyStem (1 ml, 1% w/v) was mixed with Gelin-S (1 ml, 1% w/v) immediately before use. Pelleted cells were resuspended in recently prepared HyStem:Gelin-S (1:1 v/v) mix described above. Upon the addition of crosslinker PEGDA, the cell suspension, at a final concentration of 2.0×10^7 cells/ml, was aliquoted at 25 μl aliquot four to five times into each well of 6 well plates (Corning 3516) after partial gelation to form attached beads. Following complete gelation (20 minutes), chondrogenic medium was added to each well (i.e about 4 ml/each well of a 6 well plate). […]
# (§2) The Gelin-S® component (10 mg of thiol-modified gelatin (BioTime)) is dissolved in 1.0 ml of degassed deionized water to prepare a 1% w/v solution, and polyethylene glycol diacrylate (10 mg of PEGDA) is dissolved in 0.5 ml of degassed deionized water to prepare a 2% w/v solution. […] At the desired time point, hydrogel constructs were either fixed and processed for immunohistochemical analysis or lysed using RLT (Qiagen, CA, USA) with 1% beta-mercaptoethanol for total RNA to analyze transcript expression using quantitative real-time PCR (qRT-PCR) and/or whole-genome microarray.
# (§3) Total RNA was extracted directly from cells growing in 6-well plates or 10 cm tissue culture dishes using Qiagen RNeasy mini kits according to the manufacturer's instructions. RNA concentrations were measured using a Beckman DU530 or Nanodrop spectrophotometer and RNA quality was determined by denaturing agarose gel electrophoresis or using an Agilent 2100 bioanalyzer. […] The cRNA was hybridized to Illumina BeadChips, processed, and read using a BeadStation array reader according to the manufacturer's instructions (Illumina, San Diego, Calif., USA).
# cell line E72 = experiment: Differentiation of cell line E72 in HyStem, gene expression; assay type: cell-based, human
# Procedure: as §1, §2, §3
# [1] = tested on: Bone marrow-derived mesenchymal stem cells (MSCs); experiment: Differentiation of bone marrow-derived MSCs in HyStem-C beads, FABP4 expression; assay type: cell-based; conditions: 14 days, 50 ng/mL BMP2, or 10 ng/mL BMP4, or 100 ng/mL BMP7
# Procedure: The Gelin-S® component (10 mg of thiol-modified gelatin (BioTime)) is dissolved in 1.0 ml of degassed deionized water to prepare a 1% w/v solution, and polyethylene glycol diacrylate (10 mg of PEGDA) is dissolved in 0.5 ml of degassed deionized water to prepare a 2% w/v solution. Then, HyStem (1 ml, 1% w/v) is mixed with Gelin-S (1 ml, 1% w/v) immediately before use. Pelleted cells are resuspended in the recently prepared HyStem:Gelin-S (1:1 v/v) mix described above. Upon the addition of the PEGDA cross-linker, the cell suspension, at a final concentration of 2.0×10^7 cells/ml is aliquoted (25 μl/aliquot) into six-well plates (Corning® 3516; VWR, PA, USA) after partial gelation. Following complete gelation (20 min), Differentiation Medium is added to each well. Plates were then placed in a humidified incubator at 37° C. with ambient O2 and 10% CO2, and the cells were fed three-times weekly. At the desired time point, hydrogel constructs were either fixed and processed for immunohistochemical analysis or lysed using RLT (Qiagen, CA, USA) with 1% beta-mercaptoethanol for total RNA to analyze transcript expression using quantitative real-time PCR (qRT-PCR) and/or whole-genome microarray.
molecule,measurement,setting,value
B1,ameloblastin (AMBN) expression,"cell line E75; E75, 21 days HyStem, BMP4 and TGFβ3",expressed the additional marker normally associated with enamel called ameloblastin
same,"markers normally associated with enamel, enamelin (ENAM) and amelogenin (AMELX)","cell line E75; E75, HyStem in the presence of BMP4 and TGFβ3",expressed the markers normally associated with enamel
same,adipocyte markers FABP4 and CD36 and candidate BAT cell progenitor markers such as C19orf80,"cell line E75; E75 passage 11, 21 days in HyStem with 10 ng/mL BMP4",relatively high levels
same,"markers of endochondral ossification including COL2A1, ALPL, IBSP, and osteopontin (SPP1)","cell line E75; E75 passage 11, 21 days in HyStem with 10 ng/mL TGFβ3 together with BMP4 (10 ng/mL) or BMP2 (50 ng/mL)",relatively high levels
same,"markers normally associated with enamel, enamelin (ENAM) and amelogenin (AMELX)","cell line E72; E72, HyStem in the presence of BMP4 and TGFβ3",expressed the markers normally associated with enamel
same,"markers of endochondral ossification including COL2A1, ALPL, IBSP, and osteopontin (SPP1)","cell line E72; E72 passage 11, 21 days in HyStem with 10 ng/mL TGFβ3 together with BMP4 (10 ng/mL) or BMP2 (50 ng/mL)",relatively high levels
same,adipocyte markers FABP4 and CD36,"cell line E72; E72 passage 12, 21 days in HyStem with 10 ng/mL BMP4",relatively high levels
same,differentiation into adipocytes as evidenced by expression of FABP4,[1],caused the differentiation of the cells into adipocytes

# Reference: patent US20230093399A1, “METHODS FOR GENERATING PLURIPOTENT STEM CELL-DERIVED BROWN FAT CELLS” (AgeX Therapeutics, Inc., priority 2013, published 2023)
